Test: yeast display, Sf9 membrane polyspecificity reagent, FACS + sequencing; frameworks hold sequencing errors
How it was run: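 Genes from sorted yeast were amplified by colony PCR, read by MiSeq 2 × 250 sequencing and filtered on CDR length. These cells carried a synthetic nanobody library in Saccharomyces cerevisiae BJ5465 and were sorted by FACS into low and high (top ~1%) gates on anti-HA and streptavidin fluorescence. Polyreactivity is labelled according to the gate of origin.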

Sequence | polyreactivity (PSR sort gate)
QVQLVESGGGLVQAGGSLRLSCDASGGTITNYAMGWYRQAPGKERELVAAITDSGATTYYADSVKGRFTISLVTAKNPVSLQMNSLKPEDTAVYDCNAELDLYTYFDYWGQGTQVTVSS | low polyreactivity
QVQLVESGGGLVQAGGSLRLSCAASGITFGKNAMGWYRQAPGKESEFVAAISWGGGRTYYADSVKGRFTISRDNAKNTVYLQMNSLKPEDTAVYYCNVGPRAGWYRSNYDYWGQGTQVTVSS | low polyreactivity
QVQLVESGGGLVQAGGSLRLSCAASGRTFGPYAMGWYRQAPGKERELVAAISRSGGRTYYADSVKGRFTISRDNAKNTVYLQMNSLKPEDTAVYYCAARYYSEPNAYYYWGQGTQVTVSS | high polyreactivity
QVQLVESGGGLVQAGGSLRLSCAASGRTLAPYAMGWYRQAPGKERELVAISTIGGSTYYADSVKGRFTISRDNAKNTVYLQMNSLKPEETAVYYGAADGNSTGVYLAGGEGFAYDYWGQVTQVTVSS | low polyreactivity
HVQLVESGGGLVQAGGSLRLSCAASGSIFLHNTMGWYRQAPGKERELVAVISKRGGSTYYADSVKGRFTISRDNAKNTVYLQMNCLKPEDTAVYYCNKTRSAGHPGVDGSPYYYWGQGTQVTVSS | high polyreactivity
QDQLVESGGGLVQAGGSLRLSCAASGFTFYPYAMGWYRQAPGKERELVAAITYIGSTYYADSVKGRFTISRDNAKNTVYLQMNSLKPEDTAVYYCAAVKVFLGLGYDYWGQGTQVTVSS | low polyreactivity
QVQLVESGGGLVQAGGSLRLSCAASGSTFRYIAMGWYRQAPGKERELVAAISRGGSTNYADSVKGRFTISRDNAKNSVYLQMNSLKPEDTAVYYCAASGTRRGTAVWRVKPGDYWGQGTQVTVSS | high polyreactivity
QVQLVESGGGLVQAGGSLRLSCAASGRTSSRYVMGWYRQAPGKERELVASLSRSGGSTSYADSVKGRFTISRDNAKNTVYLQMISLKPEDTAVDYCYARTSFQRGGGFWGQGTQVTVSS | high polyreactivity
QVQLVESGGGLVQAGGSLRLSCAASGSTFDLYAMGWCRQAPGKEREWVAAITWSGDDTYYADSVKGRFTISRDNATNTVYLQMNSLKPEDTAVYYCAAAYAYWGQGTQVTVSS | low polyreactivity
QVQLVESGGGLVQAGGSLRLSCAASGNTINVNTMGWYRQAPGKERDLVAAISKRGGSTYYADSVKGRFTISRDNAKNTVYLQMNSLKPEDTAVYYCDKQVSLPRYHYGSAPYGYWGQGTQVTVSS | high polyreactivity
QVQLVESGGGLVQAGGSLRLTCAASGSIFGWYVMGWYIPAPGKERELVAAISSVGSTYYADSVKGRFTISRDNAKNTVYLQMKSLKREDTAVYYCAKLRYPYLFWDDSEYWGQGTQVTVSS | low polyreactivity
QVQLVESGGGLVQAGGSLRLSCAASGRTFYGYAMGLYRQAPGKERELGASIRQSAGRTYYADSVKGRFTISRDNAMNTVYLQMNSLNPEDTAVYYCAASIFLRSFYQQGNYWGQGTQVTVSS | high polyreactivity
QVQLVESGGGLVQAGGSLRLSCPASGTIFYVNAMGLYRQEPGKETEFVAAITGGASTNFADSVKGRFTSSRDNAKNTVYLQMNSLKPEDTAVYYCAVDPVGHATRVWTYHYDYWGQGTQVTVSS | low polyreactivity
QVQLVESGGGLVQAGGSLRLSCAASGSTFHYYAMGWYRQAPGKERELVAAISQSGSGTYYADSVKGRFTISRDNAKNTVYLLMNSLKPEDTAVYYCAKDITGLSRYRRDYWGQGTQVTVSS | low polyreactivity
QVQLVESGGGLVQAGGSLRLSCAASGKIFSYNAMGWYRQAPGKERELVAAISRSGGSTYYADSVKGRFTISRDNAKNTVYLQMNSLKPEDTAVYYCAADWRGRKYDYWGQGTQVTVSS | high polyreactivity
QVQLVESGGGLVQAGGRLRLSCAASVRTFYYYVMGWYRQEPGNERELVAAISSGGSTYYADSVKGRFTISRDNAKNTVYLQMNSLKPEDTAVYYGAATKRYRDSYDYDYWGQGTQVTVSS | high polyreactivity
QVQLVESGGGLVQAGGSLRLSCAASGRIFSSYAMGWYRQAPGKEREFVASITWRGGSTYYADSVKGRFTISRDNAKNTVYLQMNSLKPEDTAVYYCAADFYWKTYGYRTHEYDYWGQGTQVTVSS | high polyreactivity
QVQLVESGGGLVQAGGSLRLSCAASGSIFGSYAMGWYRQAPGKERELVAAISYRGGRTYYADSVKGRFTISRDNAKNSVYLQMNSLKPEDTAVYYCNARARNSPPYDYWGQGTQVTVSS | high polyreactivity
QVQLVESGGGLVQAGGSLRLSSAASGRTFQTNAMGWYRQAPGKERELVAAISSTGGSTYYADSVKGRFTISRDNAKNTVYLQMNSLKPEDTAVYYCNAGRTYRYDFWGQGTQVTVSS | high polyreactivity
QVQLVESGGGLVQAGGSLRLSCAASGFIFSGYAMGWYRQAPGKERELVATISGSGGSTYYADSVKGRFTISRDNAKNTVYLQMNSLKPEDTAVYYCNALYASSVRHKVTYDYWGQGTQVTVSS | high polyreactivity
QVQLVESGGGLVQAGGSLRLSCAASGITFTPNAMGWYRQAPGKEREFVAAITYSGGSTYYADSVKGRFTISRDNAKNTVYLQMNSLKPEDTAVYYCAADSFAWWGSRYDYWGQGTQVTVSS | low polyreactivity
